The results in this text go back to US20210070876A1 (LES LABORATOIRES SERVIER, published 2021).

Test [1] has as its target T1, His-tagged human CD73 ECD (human, UniProt P21589 27-549).
T1 construct: runs as a homodimer of about 124-125 kDa in SEC-MALS; also called CD73-His; CD73-His ECD antigen
T1 sequence: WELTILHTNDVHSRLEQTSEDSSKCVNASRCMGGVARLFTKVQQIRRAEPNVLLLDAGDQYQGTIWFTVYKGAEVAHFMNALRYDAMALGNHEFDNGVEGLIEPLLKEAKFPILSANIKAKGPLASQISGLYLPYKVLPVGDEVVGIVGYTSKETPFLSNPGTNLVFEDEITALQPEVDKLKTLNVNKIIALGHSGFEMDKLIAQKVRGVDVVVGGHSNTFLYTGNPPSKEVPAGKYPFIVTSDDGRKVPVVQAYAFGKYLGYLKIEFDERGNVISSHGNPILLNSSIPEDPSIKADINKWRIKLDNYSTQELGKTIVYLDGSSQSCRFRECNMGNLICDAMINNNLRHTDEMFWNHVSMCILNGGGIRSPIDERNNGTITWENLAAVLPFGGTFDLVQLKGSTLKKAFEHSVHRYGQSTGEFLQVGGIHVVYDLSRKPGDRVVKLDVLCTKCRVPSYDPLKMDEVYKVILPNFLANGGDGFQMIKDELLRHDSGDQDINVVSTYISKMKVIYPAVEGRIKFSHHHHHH
The test is described as follows: SEC-MALS, mAb:CD73 0.1:1. On the procedure:
(§1) Anti-CD73 antibodies and His-tagged CD73 were analyzed in different ratios as well as individually to analyze the size of complexes formed between CD73 homodimer and anti-CD73 antibodies. Samples were prepared by mixing […] of CD73-His with 900, 450, 90 or 0 μmol of antibody diluted into PBS, pH 7.4. Samples were incubated for 30 min at room temperature followed by separation using a UHPLC UltiMate 3000 (Thermo Scientific) and SEC X-Bridge column (Waters) at a flow rate of 1.2 mL/min. Sample running buffer was 0.01 M Citrate, 250 mM L-Arginine.HCl, pH 6.0. Following HPLC separation, all samples were analyzed using a MiniDAWN TREOS MALS detector (Wyatt) and Optilab T-rEX refractive index detector (Wyatt). Data plots were generated using Graph Pad Prism.
A general note: In gel filtration, larger molecules generally elute earlier.

In test [2] the target is T2, His-tagged cynomolgus CD73 ECD (cynomolgus monkey (Macaca fascicularis)).
T2 chain: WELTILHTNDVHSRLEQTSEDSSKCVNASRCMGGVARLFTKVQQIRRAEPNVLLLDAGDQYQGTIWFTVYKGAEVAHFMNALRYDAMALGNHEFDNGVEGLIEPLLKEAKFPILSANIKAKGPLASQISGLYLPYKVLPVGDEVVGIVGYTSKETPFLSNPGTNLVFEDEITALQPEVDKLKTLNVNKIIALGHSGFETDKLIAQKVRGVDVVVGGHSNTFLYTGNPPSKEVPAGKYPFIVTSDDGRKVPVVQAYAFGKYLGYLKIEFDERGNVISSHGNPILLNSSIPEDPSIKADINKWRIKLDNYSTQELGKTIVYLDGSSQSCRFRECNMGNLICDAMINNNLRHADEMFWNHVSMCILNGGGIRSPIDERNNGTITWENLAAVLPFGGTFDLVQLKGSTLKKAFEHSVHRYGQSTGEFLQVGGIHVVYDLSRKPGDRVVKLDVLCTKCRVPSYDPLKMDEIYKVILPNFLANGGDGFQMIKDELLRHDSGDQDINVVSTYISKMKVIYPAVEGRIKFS
The test is described as follows: SPR, mAb captured, His-tagged CD73 ECD injected. How it is done:
(§2) Kinetic binding analysis of anti-CD73 mAbs and Fab fragments was performed by Surface Plasmon Resonance (SPR), using a Continuous Flow Microspotter (CFM, Wasatch Microfluidics, Salt Lake City, US) combined with an IBIS MX96 SPR instrument (IBIS Technologies, The Netherlands). CD73 cDNAs coding for the extracellular domains of human and cynomolgus CD73 were synthesized and each cloned into a vector containing a CMV promoter and either a C-terminal 6× histidine sequence (SEQ ID NO: 45) for His-tagged CD73 ECD, or a human IgG1 Fc sequence (AA P101-K330), resulting in fusion of IgG1 Fc C-terminally to the cloned CD73 ECD. The His-tagged and Fc-fusion constructs were transiently expressed using an ExpiCHO™ expression system and purified either by standard Ni-NTA chromatography or standard MabSelect™ SuRe™ procedures, respectively. Anti-CD73 Fab fragments were generated by digesting full-length IgG1 antibodies with GingisKHAN enzyme, using a kit provided by Genovis (Sweden). Affinities of Fab fragments were measured by capturing Fc-tagged antigens on a G-a-hu-IgG Fc SensEye® for 15 minutes using the CFM. After spotting, the SensEye® was positioned in the IBIS MX96 biosensor and immobilized antigens were fixed by SensEye FixIt kit. Kinetic analysis was performed by injecting monomeric Fab fragments at increasing concentrations from 0.8 nM to 300 nM. After each cycle of Fab fragment injection, the surface was regenerated by 10 mM glycine pH 3, 10% glycerol. Fab association was performed for 15 minutes and antigen dissociation was performed for 15 minutes. Affinities of full-length monoclonal antibodies (mAbs) were measured by capturing mAbs on a G-a-hu-IgG Fc SensEye® (Ssens BV, The Netherlands) for 15 minutes using a Continuous Flow Microspotter (CFM, Wasatch Microfluidics, Salt Lake City, US). After spotting, the SensEye was docked in the IBIS MX96 and spotted mAbs were fixed by SensEye FixIt kit (Ssens BV, The Netherlands). Kinetic analysis was performed by applying a kinetic titration series injecting increasing concentrations of His-tagged antigens from 0.16 nM to 10 nM as 2-fold dilutions. The surface was regenerated before the next cycle of cynomolgus antigen injections by 100 mM H₃PO₄, pH 3. MAb association was performed for 15 minutes and antigen dissociation was performed for 45 minutes.
On the technique in general: Surface plasmon resonance follows binding to a sensor surface in real time, without labels.

In test [3] the target is T1, His-tagged human CD73 ECD. Nature of the test: SPR, mAb captured, His-tagged CD73 ECD injected. How it is done: as §2
Test [4] concerns the target T1, His-tagged human CD73 ECD. The test is described as follows: SEC-MALS, mAb:CD73 0.5:1. On the procedure:
as §1

The target of test [5] is T1, His-tagged human CD73 ECD. The test is described as follows: SEC-MALS, mAb:CD73 1:1. How it is done:
as §1

The target in test [6] is T3, human CD73 ECD fused C-terminally to human IgG1 Fc (human, UniProt P21589 27-549, limits assumed).
T3 construct: Expressed in ExpiCHO; also called Hs CD73 ECD; Fc-tagged antigen
T3 sequence: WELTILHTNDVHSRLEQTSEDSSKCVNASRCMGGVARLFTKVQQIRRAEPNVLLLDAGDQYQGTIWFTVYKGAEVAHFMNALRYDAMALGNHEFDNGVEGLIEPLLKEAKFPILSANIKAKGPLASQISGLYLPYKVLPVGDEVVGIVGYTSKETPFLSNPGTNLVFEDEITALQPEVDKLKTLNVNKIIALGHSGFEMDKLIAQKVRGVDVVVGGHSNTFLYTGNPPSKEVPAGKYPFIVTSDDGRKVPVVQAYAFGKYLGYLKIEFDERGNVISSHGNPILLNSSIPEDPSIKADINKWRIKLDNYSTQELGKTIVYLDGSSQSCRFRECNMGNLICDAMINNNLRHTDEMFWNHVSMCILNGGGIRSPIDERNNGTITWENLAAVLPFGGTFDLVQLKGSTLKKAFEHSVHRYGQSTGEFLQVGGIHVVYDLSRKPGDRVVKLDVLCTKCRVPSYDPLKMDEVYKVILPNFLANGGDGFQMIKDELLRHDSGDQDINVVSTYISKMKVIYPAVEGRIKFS
The test is described as follows: SPR, Fc-tagged CD73 ECD captured, Fab injected. On the procedure: as §2

In test [7] the target is T4, cynomolgus CD73 ECD fused C-terminally to human IgG1 Fc (cynomolgus monkey (Macaca …, UniProt A0A2K5V5U7 27-549)).
T4 construct: also called Cy CD73 ECD; Fc-tagged antigen; not shown: Human IgG1 Fc (printed as AA P101-K330) fused to the C-terminus of the ECD, and any linker
T4 sequence: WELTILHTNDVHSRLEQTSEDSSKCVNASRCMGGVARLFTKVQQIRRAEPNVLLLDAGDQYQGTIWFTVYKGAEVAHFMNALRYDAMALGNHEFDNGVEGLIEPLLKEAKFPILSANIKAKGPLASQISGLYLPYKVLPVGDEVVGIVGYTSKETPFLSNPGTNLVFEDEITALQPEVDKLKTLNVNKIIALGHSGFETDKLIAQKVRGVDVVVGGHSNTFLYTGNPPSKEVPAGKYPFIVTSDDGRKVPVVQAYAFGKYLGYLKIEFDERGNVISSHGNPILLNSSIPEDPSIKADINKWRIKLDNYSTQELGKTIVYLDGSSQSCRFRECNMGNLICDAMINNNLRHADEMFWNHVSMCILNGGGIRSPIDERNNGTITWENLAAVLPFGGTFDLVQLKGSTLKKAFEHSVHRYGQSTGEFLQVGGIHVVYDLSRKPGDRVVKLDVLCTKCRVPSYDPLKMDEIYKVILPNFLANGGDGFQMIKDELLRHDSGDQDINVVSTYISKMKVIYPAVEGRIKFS
The test is described as follows: SPR, Fc-tagged CD73 ECD captured, Fab injected. On the procedure: as §2

Test [8] addresses T5, human CD73 expressed on cells (human, UniProt P21589 27-549).
T5 construct: also called 5'-NT; human CD73 on CHO-S cells
T5 sequence: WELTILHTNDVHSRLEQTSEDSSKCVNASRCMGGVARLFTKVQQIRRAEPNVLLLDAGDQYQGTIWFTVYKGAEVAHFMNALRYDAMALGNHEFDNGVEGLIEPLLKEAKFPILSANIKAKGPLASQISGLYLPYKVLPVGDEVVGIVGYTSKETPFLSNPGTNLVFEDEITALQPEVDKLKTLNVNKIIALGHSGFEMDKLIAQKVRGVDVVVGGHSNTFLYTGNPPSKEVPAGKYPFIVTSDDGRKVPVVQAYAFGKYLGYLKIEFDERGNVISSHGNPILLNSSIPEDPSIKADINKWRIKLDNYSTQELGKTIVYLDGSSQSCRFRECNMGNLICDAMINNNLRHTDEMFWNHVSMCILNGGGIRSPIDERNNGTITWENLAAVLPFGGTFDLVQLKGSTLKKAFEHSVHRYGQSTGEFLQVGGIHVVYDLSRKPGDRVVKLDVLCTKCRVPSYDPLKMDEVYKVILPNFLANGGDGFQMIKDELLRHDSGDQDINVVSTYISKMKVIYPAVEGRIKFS
The test is described as follows: flow cytometry on CHO-S cells transiently expressing human CD73, AF647 anti-human IgG (H+L) secondary, GeoMean. How it is done:
The anti-CD73 antibodies were incubated with the hamster CHO-S cell line transiently expressing human or cynomolgus CD73 for 30 minutes at 4° C. The cells were washed twice and subsequently incubated for an additional 20 minutes with AF647-conjugated secondary anti-human IgG (H+L) antibody. After the washing step, antibody binding was detected using the high-throughput flow cytometer iQue Screener PLUS (Sartorius) measuring the GeoMean of AF647 signal in each well. Every concentration was assayed in triplicate and a 12-point titration curve was generated for each antibody.
A general note: Flow cytometry measures light scatter and fluorescence of single cells or particles in a stream.

B1: antibody 21046 (antibody, human IgG1, kappa, L234A L235A, V domains shown)
VH: EVQLVESGGGLVQPGRSLRLSCVASGFTFDDYAMHWVRQAPGKGLEWVSGISWNSGSIGYADSVKGRFTISRDNAKNSLYLQMNSLRAEDTAFYYCAQGGYAILTALEYWGQGTLVTVSS
VL: DIQMTQSPSSLSASVGDRVTITCRASQGISNYLAWFQQKPGKAPKSLIYAASSLQSGVPSKFSGSGSGTDFTLTISSLQPEDFATYYCQQYNSYPLTFGGGTKVEIKR
notes: Fully human IgG1-LALA (L234A/L235A), kappa
Regarding B1, the “molecular mass of complex, Peak 2 (MW, kDa)” value in test [1] turned out to be 969 kDa; in test [4], 199 kDa; in test [5] it was 382 kDa. The Kd (commonly the free concentration of one partner at which half of the binding sites on the other are occupied at equilibrium, for simple one-to-one binding) came to 0.05 nM in test [2] and 0.04 nM in test [3]. Besides, the koff (commonly the rate constant with which the complex falls apart) in test [2] was determined as 1.1e-05 s⁻¹; in test [3], 8.3e-06 s⁻¹. Besides, the kon (commonly the second-order rate constant of association) in test [2] worked out at 210000 M⁻¹ s⁻¹; in test [3] it was 190000 M⁻¹ s⁻¹.

B2: 21127 Fab fragment (Fab, V domains shown, not shown: small tags and cut ends)
VH: EVQLVESGGGLVQPGRSLRLSCAASGFTFDDFAMHWVRQAPGKGLEWVSGISWNSGNIGYADSVKGRFTISRDNAKNSLYLQMNSLRAEDTALYYCAKDKSGSPYYYYGMDVWGQGTMVTVSS
VL: DIQMTQSPSSVSASVGDRVTITCRATQGISRRLAWYQQKPGKAPKLLIYAASSLQSGVPSRFSGSGSGTDFTLTISSLQPEDFATYYCQQANSFPLTFGGGTKVEIKR
notes: Made by digesting the full-length IgG1 with GingisKHAN enzyme (Genovis)
Regarding B2, the Kd in test [6] worked out at 54.6 nM; in test [7], 55.3 nM.

B3: antibody 21028 (antibody, human IgG1, kappa, L234A L235A, V domains shown)
VH: EVQLVESGGGLVQPGRSLRLSCAASGFSFDDYAMHWVRQAPGKGLEWVSGISWHSDNIGYADSVKGRFTISRDNAKNSLYLQMNSLRAEDTAFYYCAKDGPRYRGSYYYFDYWGQGTLVTVSS
VL: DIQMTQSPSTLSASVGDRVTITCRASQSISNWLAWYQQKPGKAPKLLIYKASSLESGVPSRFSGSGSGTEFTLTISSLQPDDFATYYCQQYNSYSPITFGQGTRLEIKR
notes: Fully human IgG1-LALA (L234A/L235A), kappa; germline-corrected (Symplex-corrected) variable domains
As for B3, in test [8], the binding result is given as “binds”.
